Reference: patent US20240279325A1 (Chugai, published 2024)
Substitutions are numbered along the chain they refer to.

T1: FcγRIIa type R (allotype R131) extracellular domain with C-terminal His tag (human, UniProt P12318 34-217)
T1 construct: extracellular domain; also called FcγRIIaR; FcγRIIa R type
T1 sequence (looked up): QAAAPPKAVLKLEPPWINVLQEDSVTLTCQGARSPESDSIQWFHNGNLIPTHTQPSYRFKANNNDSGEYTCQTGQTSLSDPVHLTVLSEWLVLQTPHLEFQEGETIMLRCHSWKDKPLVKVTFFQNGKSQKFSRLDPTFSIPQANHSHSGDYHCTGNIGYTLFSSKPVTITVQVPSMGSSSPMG

T2: FcγRIIb extracellular domain with C-terminal His tag (human, UniProt P31994 43-217)
T2 construct: extracellular domain
T2 sequence (looked up): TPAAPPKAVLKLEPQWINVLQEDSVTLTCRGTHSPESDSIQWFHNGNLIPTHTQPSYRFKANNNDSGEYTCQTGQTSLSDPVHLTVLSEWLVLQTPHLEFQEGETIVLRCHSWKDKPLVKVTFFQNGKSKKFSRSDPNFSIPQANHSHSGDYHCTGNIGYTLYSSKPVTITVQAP

B1: IL6R-BP262/IL6R-L (antibody, human IgG1, kappa, name in EU numbering)
heavy: QVQLQESGPGLVKPSETLSLTCAVSGHSISHDHAWSWVRQPPGEGLEWIGFISYSGITNYNPSLQGRVTISRDNSKNTLYLQMNSLRAEDTAVYYCARSLARTTAMDYWGEGTLVTVSSASTKGPSVFPLAPSSKSTSGGTAALGCLVKDYFPEPVTVSWNSGALTSGVHTFPAVLQSSGLYSLSSVVTVPSSSLGTQTYICNVNHKPSNTKVDKKVEPKSCDKTHTCPPCPAPELLGDDSVFLFPPKPKDTLMISRTPEVTCVVVDVSEEDGEVKFNWYVDGVEVHNAKTKPREEQYNSTYRVVSVLTVLHQDWLNGKEYKCKVSNKALPAPIEKTISKAKGQPREPQVYTLPPSRDELTKNQVSLTCLVKGFYPSDIAVEWESNGQPENNYKTTPPVLDSDGSFFLYSKLTVDKSRWQQGNVFSCSVMHEALHNHYTQESLSLSP
light: not shown
notes: copies: 2 + 2
B2: IL6R-BP269/IL6R-L (antibody, human IgG1, kappa, name in EU numbering)
heavy: B1 heavy with Y298D
light: not shown
notes: copies: 2 + 2
B3: IL6R-BP497/IL6R-L (antibody, human IgG1, kappa, name in EU numbering)
heavy: B1 heavy with E235D, V266I, S269A, A329G, A332R
light: not shown
notes: copies: 2 + 2
B4: IL6R-BP483/IL6R-L (antibody, human IgG1, kappa, name in EU numbering)
heavy: B1 heavy with E235D, V268L, S269A
light: not shown
notes: copies: 2 + 2
B5: IL6R-BP502/IL6R-L (antibody, human IgG1, kappa, name in EU numbering)
heavy: B1 heavy with E235D, V266I, S269A, Y298D, A329G, A332R
light: not shown
notes: copies: 2 + 2
B6: IL6R-BP479/IL6R-L (antibody, human IgG1, kappa, name in EU numbering)
heavy: B1 heavy with E235D, V266I, V268L, S269A
light: not shown
notes: copies: 2 + 2
B7: IL6R-BP498/IL6R-L (antibody, human IgG1, kappa, name in EU numbering)
heavy: B1 heavy with E235D, V266I, S269A, A332R, P398L
light: not shown
notes: copies: 2 + 2
B8: IL6R-BP500/IL6R-L (antibody, human IgG1, kappa, name in EU numbering)
heavy: B1 heavy with V266I, S269A, Y298D
light: not shown
notes: copies: 2 + 2
B9: IL6R-BP487/IL6R-L (antibody, human IgG1, kappa, name in EU numbering)
heavy: B1 heavy with E235D, V266I, S269A, A332R, P398M
light: not shown
notes: copies: 2 + 2
B10: IL6R-BP484/IL6R-L (antibody, human IgG1, kappa, name in EU numbering)
heavy: B1 heavy with E235D, S269A, E271D
light: not shown
notes: copies: 2 + 2
B11: IL6R-BP489/IL6R-L (antibody, human IgG1, kappa, name in EU numbering)
heavy: B1 heavy with E235D, V266I, S269A, Y298D, A332R, P398M
light: not shown
notes: copies: 2 + 2
B12: IL6R-BP508/IL6R-L (antibody, human IgG1, kappa, name in EU numbering)
heavy: B1 heavy with E235D, V266I, S269A, E274P, Y298D
light: not shown
notes: copies: 2 + 2
B13: IL6R-BP481/IL6R-L (antibody, human IgG1, kappa, name in EU numbering)
heavy: B1 heavy with E235D, V266I, S269A
light: not shown
notes: copies: 2 + 2
B14: IL6R-BP496/IL6R-L (antibody, human IgG1, kappa, name in EU numbering)
heavy: B1 heavy with E235D, V266I, S269A, Y298D
light: not shown
notes: copies: 2 + 2
B15: IL6R-BP503/IL6R-L (antibody, human IgG1, kappa, name in EU numbering)
heavy: B1 heavy with E235D, V266I, S269A, Y298D, A329G, A332R, P398M
light: not shown
notes: copies: 2 + 2
B16: IL6R-BP491/IL6R-L (antibody, human IgG1, kappa, name in EU numbering)
heavy: B1 heavy with V266I, S269A, Y298D, A332R
light: not shown
notes: also called IL6R-491/IL6R-L; copies: 2 + 2
B17: IL6R-BP492/IL6R-L (antibody, human IgG1, kappa, name in EU numbering)
heavy: B1 heavy with D239G, V266I, S269A
light: not shown
notes: copies: 2 + 2
B18: IL6R-BP499/IL6R-L (antibody, human IgG1, kappa, name in EU numbering)
heavy: B1 heavy with E235D, V266I, S269A, Y298D, A332R, P398L
light: not shown
notes: copies: 2 + 2
B19: IL6R-BP505/IL6R-L (antibody, human IgG1, kappa, name in EU numbering)
heavy: B1 heavy with E235D, V266I, S269A, E274D
light: not shown
notes: copies: 2 + 2

Columns and labels:
[1] = molecular target: T1, FcγRIIa type R (allotype R131) …; assay: SPR; KD of IL6R-B3/IL6R-L divided by KD of the variant
[2] = molecular target: T2, FcγRIIb extracellular domain with …; assay: as above
[3] = molecular target: T2, FcγRIIb extracellular domain with …; assay: SPR; KD for FcγRIIaR divided by KD for FcγRIIb
[4] = molecular target: T2, FcγRIIb extracellular domain with …; assay: SPR; KD for FcγRIIaH divided by KD for FcγRIIb

| Binder | KD(IIaR) OF PARENT POLYPEPTIDE/KD(IIaR) OF ALTERED POLYPEPTIDE [1] | KD(IIb) OF PARENT POLYPEPTIDE/KD(IIb) OF ALTERED POLYPEPTIDE [2] | KD(IIaR)/KD(IIb) [3] | KD(IIaH)/KD(IIb) [4] |
| --- | --- | --- | --- | --- |
| B1 | 0.5 | 25.8 | 17 | 375 |
| B2 | 0.5 | 27.4 | 19.6 | 637 |
| B3 | 12.9 | 764 | 21 | 236 |
| B4 | 0.8 | 39.7 | – | 231 |
| B5 | 10.1 | 810 | 29.5 | 352 |
| B6 | 1.2 | 55.5 | 16.1 | 268 |
| B7 | 21.7 | 1880 | 30.3 | 564 |
| B8 | 1.5 | 128 | 29.9 | 1030 |
| B9 | 28.3 | 2700 | 33.8 | 730 |
| B10 | 1.4 | 67.3 | 17.1 | 241 |
| B11 | 25.7 | 3100 | 42.8 | 870 |
| B12 | 2 | 149 | 26 | 962 |
| B13 | 2.8 | 160 | 20.5 | 350 |
| B14 | 2.3 | 168 | 25.5 | 201 |
| B15 | 19.4 | 1810 | 33.2 | 503 |
| B16 | 9.3 | 1020 | 38.8 | 724 |
| B17 | 1.2 | 131 | 38.8 | 678 |
| B18 | 22.3 | 2120 | 33.8 | 685 |
| B19 | 2.6 | 145 | 20 | 514 |
